These results are taken from the supplement of paper PMC10567573.

B1: KCNK9 (parent)
chain: CFITLTTIGFGDYVALQTKGALQK
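Also: lentivirally expressed fusions sorted by FACS into six bins by GFP to DsRed ratio, PSI derived from sequencing read proportions per bin multiplied by bin number.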

This series covers variants of B1. As to the kind of experiment: protein stability index of a GFP-peptide fusion (GPS, HEK-293T) (PSI 1-6); higher = more stable. As to conditions: c terminus: a fixed tail appended.
As to CFITLRTIGFGDYVALQTKGALQK, the protein stability index turned out to be 2.85.
Next, CFITLDTIGFGDYVALQTKGALQK: 2.36; CFITLITIGFGDYVALQTKGALQK: 2.13.
With CFITLSTIGFGDYVALQTKGALQK, the protein stability index was 3.54.
CFITLQTIGFGDYVALQTKGALQK: the protein stability index amounted to 1.51.
Next, CFITLHTIGFGDYVALQTKGALQK: 1.44; CFITLNTIGFGDYVALQTKGALQK: 2.89.
Take CFITLETIGFGDYVALQTKGALQK: the protein stability index is 1.83.
The result for CFITLGTIGFGDYVALQTKGALQK reads 1.69.
The result for CFITLKTIGFGDYVALQTKGALQK reads 2.11.
Turning to CFITLLTIGFGDYVALQTKGALQK, the protein stability index came out at 3.01.
With CFITLPTIGFGDYVALQTKGALQK, the protein stability index was determined as 1.21.
With CFITLFTIGFGDYVALQTKGALQK, the protein stability index came to 2.57.
In the case of CFITLMTIGFGDYVALQTKGALQK, the protein stability index was 4.77.
Next, CFITLYTIGFGDYVALQTKGALQK: 2.71; CFITLCTIGFGDYVALQTKGALQK: 3.41; CFITLVTIGFGDYVALQTKGALQK: 3.1.
The result for CFITLTIIGFGDYVALQTKGALQK reads 3.49; that for CFITLTDIGFGDYVALQTKGALQK, 2.15; that for CFITLTVIGFGDYVALQTKGALQK, 2.77.
Regarding CFITLTNIGFGDYVALQTKGALQK, the protein stability index turned out to be 1.78.
Regarding CFITLTAIGFGDYVALQTKGALQK, the protein stability index was found to be 4.42.
Take CFITLTPIGFGDYVALQTKGALQK: the protein stability index is 2.32.
For CFITLTLIGFGDYVALQTKGALQK, the protein stability index is 3.38.
The result for CFITLTFIGFGDYVALQTKGALQK reads 3.36; that for CFITLTEIGFGDYVALQTKGALQK, 2.94; that for CFITLTHIGFGDYVALQTKGALQK, 2.63.
Next, CFITLTKIGFGDYVALQTKGALQK: 1.73.
The result for CFITLTWIGFGDYVALQTKGALQK reads 4.77.
Take CFITLTSIGFGDYVALQTKGALQK: the protein stability index stood at 2.53.
On to CFITLTQIGFGDYVALQTKGALQK, for which the protein stability index amounted to 2.52.
Next, CFITLTRIGFGDYVALQTKGALQK: 2.44; CFITLTMIGFGDYVALQTKGALQK: 2.54; CFITLTYIGFGDYVALQTKGALQK: 2.13.
Regarding CFIILTTIGFGDYVALQTKGALQK, the protein stability index was 1.52.
Consider CFIDLTTIGFGDYVALQTKGALQK, for which the protein stability index was found to be 2.54.
The result for CFIGLTTIGFGDYVALQTKGALQK reads 2.63; that for CFISLTTIGFGDYVALQTKGALQK, 3.03; that for CFIELTTIGFGDYVALQTKGALQK, 2.07.
Next, CFIMLTTIGFGDYVALQTKGALQK: 3.53; CFIALTTIGFGDYVALQTKGALQK: 2.99.
For the variant CFIRLTTIGFGDYVALQTKGALQK, the protein stability index stood at 2.99.
Next, CFIHLTTIGFGDYVALQTKGALQK: 2.23.
With CFIWLTTIGFGDYVALQTKGALQK, the protein stability index worked out at 2.91.
Next, CFINLTTIGFGDYVALQTKGALQK: 3.41; CFIFLTTIGFGDYVALQTKGALQK: 2.95.
Next, CFIQLTTIGFGDYVALQTKGALQK: 1.99; CFICLTTIGFGDYVALQTKGALQK: 3.91; CFIPLTTIGFGDYVALQTKGALQK: 2.13.
The result for CFIVLTTIGFGDYVALQTKGALQK reads 2.25; that for CFIKLTTIGFGDYVALQTKGALQK, 3.64; that for CFITSTTIGFGDYVALQTKGALQK, 1.6.
CFITKTTIGFGDYVALQTKGALQK: the protein stability index came to 1.59.
Regarding CFITYTTIGFGDYVALQTKGALQK, the protein stability index came out at 3.03.
The result for CFITDTTIGFGDYVALQTKGALQK reads 2.42; that for CFITITTIGFGDYVALQTKGALQK, 3.75; that for CFITCTTIGFGDYVALQTKGALQK, 3.26.
Take CFITWTTIGFGDYVALQTKGALQK: the protein stability index was 2.72.
For CFITHTTIGFGDYVALQTKGALQK, the protein stability index came out at 1.77.
The result for CFITQTTIGFGDYVALQTKGALQK reads 2.07.
Next, CFITTTTIGFGDYVALQTKGALQK: 1.57.
With CFITMTTIGFGDYVALQTKGALQK, the protein stability index was determined as 2.65.
The result for CFITFTTIGFGDYVALQTKGALQK reads 3.73; that for CFITETTIGFGDYVALQTKGALQK, 2.38; that for CFITATTIGFGDYVALQTKGALQK, 1.85.
Next, CFITPTTIGFGDYVALQTKGALQK: 2.17.
The result for CFITVTTIGFGDYVALQTKGALQK reads 2.34; that for CFITNTTIGFGDYVALQTKGALQK, 2.12.
On to CFITGTTIGFGDYVALQTKGALQK, for which the protein stability index worked out at 2.48.
The result for CFITRTTIGFGDYVALQTKGALQK reads 2.24; that for CFITLTTEGFGDYVALQTKGALQK, 2.39; that for CFITLTTKGFGDYVALQTKGALQK, 1.53.
The result for CFITLTTDGFGDYVALQTKGALQK reads 2.14; that for CFITLTTHGFGDYVALQTKGALQK, 3.24; that for CFITLTTCGFGDYVALQTKGALQK, 2.37.
Next, CFITLTTFGFGDYVALQTKGALQK: 2.8; CFITLTTLGFGDYVALQTKGALQK: 3.63.
Regarding CFITLTTGGFGDYVALQTKGALQK, the protein stability index amounted to 2.78.
The result for CFITLTTAGFGDYVALQTKGALQK reads 2.08; that for CFFTLTTIGFGDYVALQTKGALQK, 1.52.
Next, CFTTLTTIGFGDYVALQTKGALQK: 1.87; CFYTLTTIGFGDYVALQTKGALQK: 2.82.
Next, CFWTLTTIGFGDYVALQTKGALQK: 2.2; CFKTLTTIGFGDYVALQTKGALQK: 2.06; CFQTLTTIGFGDYVALQTKGALQK: 2.13.
For the variant CFGTLTTIGFGDYVALQTKGALQK, the protein stability index stood at 1.68.
Next, CFHTLTTIGFGDYVALQTKGALQK: 1.82.
For the variant CFRTLTTIGFGDYVALQTKGALQK, the protein stability index came to 1.78.
The result for CFNTLTTIGFGDYVALQTKGALQK reads 1.86; that for CFPTLTTIGFGDYVALQTKGALQK, 2.68.
For CFMTLTTIGFGDYVALQTKGALQK, the protein stability index is 2.05.
The result for CFETLTTIGFGDYVALQTKGALQK reads 2.03; that for CFLTLTTIGFGDYVALQTKGALQK, 2.05; that for CFSTLTTIGFGDYVALQTKGALQK, 2.11.
